The target in assay [1] is KD^pY1, mono-phosphorylated FGFR2 kinase domain (UniProt P21802). The experiment in a line: MST.
For assay [2], the target named is CT^C1, untagged C-terminal tail of FGFR2 (the last 58 residues) (UniProt P21802). As to the kind of experiment: MST.
Assay [3] addresses JM-KD^pY1 (UniProt P21802). As to the kind of experiment: MST.
The target in assay [4] is CT^C1, untagged C-terminal tail of FGFR2 (the last 58 residues) (UniProt P21802). As to the kind of experiment: SPR. For orientation: SPR reads the build-up and loss of mass on a sensor chip optically.
Assay [5] deals with JM-KD^pY1 (UniProt P21802). As to the kind of experiment: SPR.
Assay [6] concerns the target FGFR2 juxtamembrane region (JM) (UniProt P21802). The experiment in a line: MST.
Assay [7] shares this target. The experiment in a line: MST. This is another data set of the same source.
A further assay has as its target JM-KD^Y657/658F (UniProt P21802-3 414-764, Y657/658F).

Read-outs that look alike come from different tables or passages of the source.

In assay [1], CT peptide 801-815 showed a Kd of 25.9 µM.

For JM peptide 407-420, in assay [1], the fold weaker binding than peptide 414-430 was 3 fold.

Molecule JM peptide 414-430 came in with a Kd in assay [1] of 36.8 µM.

In the case of “JM-KD^pY1 (from UniProt P21802-3 414-764) (domain or fragment)”, the Kd is 0.304 µM in assay [2], 3.46 µM in the assay with JM-KD^pY1 [3], 0.165 µM in assay [4] and 3.07 µM with JM-KD^pY1 [5].

In the case of “KD^pY1, mono-phosphorylated FGFR2 kinase domain (from UniProt P21802-3 465-764) (domain or fragment)”, the Kd in assay [2] amounted to 3.75 µM; in assay [1], 0.112 µM; in assay [6], 2.51 µM.

B1: CT^C1, untagged C-terminal tail of FGFR2 (the last 58 residues) (domain or fragment)
chain: TTNEEYLDLSQPLEQYSPSYPDTRSSCSSGDDSVFSPDPMPYEPCLPQYPHINGSVKT
modifications: Atto488 dye in the MST assays where CT is the labelled partner
B1: the Kd in assay [7] was 20.2 µM; in the assay with JM-KD^Y657/658F, 5.65 ± 1.9 µM.

The Kd is the equilibrium constant for the complex coming apart.
